Results published in patent US20170267764A1 (INNATE PHARMA, published 2017).

T1: human MICA allele MICA*007 (human, UniProt Q29983 24-297)
T1 construct: Expressed on transfected C1R cells; also called MICA*07; C1R-MICA*007
T1 chain: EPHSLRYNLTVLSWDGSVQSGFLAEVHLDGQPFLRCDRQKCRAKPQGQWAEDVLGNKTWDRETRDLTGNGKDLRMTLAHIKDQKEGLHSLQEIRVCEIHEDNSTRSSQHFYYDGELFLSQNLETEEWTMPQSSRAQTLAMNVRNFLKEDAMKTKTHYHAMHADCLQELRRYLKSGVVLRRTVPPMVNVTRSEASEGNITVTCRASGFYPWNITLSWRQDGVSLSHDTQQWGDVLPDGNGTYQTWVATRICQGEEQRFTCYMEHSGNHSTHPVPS

T2: human MICA allele MICA*001 (human, UniProt Q29983 24-297)
T2 construct: Expressed on transfected C1R cells; also called MICA*01; C1R-MICA*001
T2 sequence: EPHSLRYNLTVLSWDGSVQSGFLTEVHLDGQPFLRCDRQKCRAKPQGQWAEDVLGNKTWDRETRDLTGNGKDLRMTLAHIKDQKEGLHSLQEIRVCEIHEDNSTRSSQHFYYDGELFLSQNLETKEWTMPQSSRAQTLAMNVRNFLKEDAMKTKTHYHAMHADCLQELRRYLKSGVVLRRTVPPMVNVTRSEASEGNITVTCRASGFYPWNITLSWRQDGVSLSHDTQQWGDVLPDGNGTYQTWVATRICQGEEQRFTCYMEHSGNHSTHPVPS

T3: human MICA allele MICA*004 (human, UniProt Q29983 24-297)
T3 construct: Expressed on transfected C1R cells; also called MICA*04; C1R-MICA*004
T3 chain: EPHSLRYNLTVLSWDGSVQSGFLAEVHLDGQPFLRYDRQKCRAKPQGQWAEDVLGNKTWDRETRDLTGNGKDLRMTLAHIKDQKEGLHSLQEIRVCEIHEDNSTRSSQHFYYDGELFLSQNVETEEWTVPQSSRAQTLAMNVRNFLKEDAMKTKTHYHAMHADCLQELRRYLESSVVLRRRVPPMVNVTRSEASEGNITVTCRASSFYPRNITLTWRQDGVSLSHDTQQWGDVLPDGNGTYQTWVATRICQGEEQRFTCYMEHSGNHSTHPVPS

T4: human MICA allele MICA*008 (human, UniProt Q29983 24-297)
T4 construct: Expressed on transfected C1R cells; also called MICA*08; C1R-MICA*008
T4 chain: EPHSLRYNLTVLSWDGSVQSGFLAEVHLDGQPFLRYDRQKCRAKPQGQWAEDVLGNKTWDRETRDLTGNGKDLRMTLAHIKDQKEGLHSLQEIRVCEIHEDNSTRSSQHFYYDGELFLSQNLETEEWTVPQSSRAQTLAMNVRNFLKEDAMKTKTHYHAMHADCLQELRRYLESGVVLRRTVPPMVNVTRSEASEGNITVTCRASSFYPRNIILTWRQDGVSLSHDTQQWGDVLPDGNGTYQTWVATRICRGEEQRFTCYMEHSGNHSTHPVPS


Columns and labels:
[1] = molecular target: T1, human MICA allele MICA*007; assay: flow cytometry, C1R-MICA*007 transfectant cells
Procedure: (§1) The binding of the antibodies in Table 2 of Example 1 were tested for binding to MICA-expressing C1R transfectant cells (ATCC reference CRL-1993™) transfected with RSV.5neo vectors (GenBank (NCBI) under Accession number M83237), as described in Salih et al. (2003) Blood 102(4): […], referred to as C1R-MICA*001, C1R-MICA*004, C1R-MICA*007 and C1R-MICA*008. Binding was analyzed by flow cytometry.
(§2) Cells were harvested and stained in PBS 1×/BSA 0.2%/EDTA 2 mM buffer during 30 minutes at 4° C. using a dose-range of the anti-MICA mAbs. After two washes in staining buffer, cells were stained for 30 min at 4° C. with mouse anti-human IgG1-PE monoclonal antibodies (1/11). After two washes, stainings were acquired on a BD FACS Canto II and analyzed using the FlowJo software.

[2] = molecular target: T2, human MICA allele MICA*001; assay: flow cytometry, C1R-MICA*001 transfectant cells
Procedure: as §1, §2

[3] = molecular target: T3, human MICA allele MICA*004; assay: flow cytometry, C1R-MICA*004 transfectant cells
Procedure: as §1, §2

[4] = molecular target: T4, human MICA allele MICA*008; assay: flow cytometry, C1R-MICA*008 transfectant cells
Procedure: as §1, §2

[5] = molecular target: T2, human MICA allele MICA*001; assay: flow cytometry, C1R-MICA*001 transfectant cells; reference: parental antibody
Procedure: as §1, §2

[6] = molecular target: T4, human MICA allele MICA*008; assay: cell-based or functional assay
[7] = molecular target: T2, human MICA allele MICA*001; assay: cell-based or functional assay

Binder | EC50 [1] [µg/mL] | EC50 [2] [µg/mL] | EC50 [3] [µg/mL] | EC50 [4] [µg/mL] | fold improvement in affinity compared to the parental antibody [5] [fold] | EC50 (read off the curve), ADCC % specific lysis [panel C1R MICA*008] [6] [µg/mL] | EC50 (read off the curve), ADCC % specific lysis [panel C1R MICA*001] [7] [µg/mL]
mAb4 (antibody, V domains shown, Produced in CHO cells as human IgG1 with huCk constant domain) VH: QVQLQESGPGLVKPSETLSLTCTVSGYSITSDYAWNWIRQPPGKGLEWMGFVSYSGTTKYNPSLKSRVTISRDTSKNQFSLKLSSVTAADTAVYYCARGYGFDYWGQGTTVTVSS VL: EIVLTQSPATLSLSPGERATLSCSATSSISSIYFHWYQQKPGQAPRLLIYRTSNLASGIPARFSGSGSGTDYTLTISSLEPEDFAVYYCQQGTTIPFTFGQGTKLEIK | 0.0875 | 0.316 | 0.063 | 0.0859 |  |  | 
mAb9 (antibody, V domains shown, Produced in CHO cells as human IgG1 with huCk constant domain) VH: QVQLQESGPGLVKPSETLSLTCTVSGYSITSDYAWNWIRQPPGKGLEWMGFVSYSGTTKYNPSLKSRVTISRDTSENQFSLKLSSVTAADTAVYYCARGYGFDYWGQGTTVTVSS VL: EIVLTQSPATLSLSPGERATLSCSATSSISSIYFHWYQQKPGQAPRLLIYRTSNLASGIPARFSGSGSGTDYTLTISSLEPEDVAVYYCQQGTTIPFTFGQGTKLEIK | 0.0519 | 0.318 | 0.0438 | 0.0515 |  |  | 
mAb10 (antibody, V domains shown, Produced in CHO cells as human IgG1 with huCk constant domain) VH: QVQLQESGPGLVKPSETLSLTCTVSGYSITSDYAWNWIRQPPGKGLEWMGFVSYSGTTKYNPSLKSRITISRDTSENQFSLKLSSVTAADTAVYYCARGYGFDYWGQGTTVTVSS VL: EIVLTQSPATLSLSPGERATLSCSATSSISSIYFHWYQQKPGQAPRLLIYRTSNLASGIPARFSGSGSGTDYTLTISSLEPEDFAVYYCQQGTTIPFTFGQGTKLEIK | 0.0498 | 0.307 | 0.0631 | 0.144 |  |  | 
mAb6 (antibody, V domains shown, Produced in CHO cells as human IgG1 with huCk constant domain) VH: QVQLQESGPGLVKPSETLSLTCTVSGYSITSDYAWNWIRQPPGKGLEWMGFVSYSGTTKYNPSLKSRVTISRDTSKNQFSLKLSSVTAADTAVYYCARGYGFDYWGQGTTVTVSS VL: EIVLTQSPATLSLSPGERATLSCSATSSISSIYFHWYQQKPGQAPRLLIYRTSNLASGIPARFSGSGSGTDYTLTISSLEPEDVAVYYCQQGTTIPFTFGQGTKLEIK | 0.0718 | 0.407 | 0.0838 | 0.0953 |  |  | 
mAb3 (antibody, V domains shown, Produced in CHO cells as human IgG1 with huCk constant domain) VH: QVQLQESGPGLVKPSETLSLTCTVSGYSITSDYAWNWIRQPPGKGLEWIGFVSYSGTTKYNPSLKSRVTISRDTSKNQFSLKLSSVTAADTAVYYCARGYGFDYWGQGTTVTVSS VL: EIVLTQSPATLSLSPGERATLSCSATSSISSIYFHWYQQKPGQAPRLLIYRTSNLASGIPARFSGSGSGTDYTLTISSLEPEDVAVYYCQQGTTIPFTFGQGTKLEIK | 0.0612 | 0.265 | 0.0608 | 0.0822 |  |  | 
mAb7 (antibody, V domains shown, Produced in CHO cells as human IgG1 with huCk constant domain) VH: QVQLQESGPGLVKPSETLSLTCTVSGYSITSDYAWNWIRQPPGKGLEWMGFVSYSGTTKYNPSLKSRVTISRDTSENQFSLKLSSVTAADTAVYYCARGYGFDYWGQGTTVTVSS VL: EIVLTQSPATLSLSPGERATLSCSATSSISSIYFHWYQQKPGQAPRLLIYRTSNLASGIPARFSGSGSGTDYTLTISSLEPEDFAVYYCQQGTTIPFTFGQGTKLEIK | 0.0668 | 0.288 | 0.0616 | 0.0871 |  |  | 
mAb8 (antibody, V domains shown, Produced in CHO cells as human IgG1 with huCk constant domain) VH: QVQLQESGPGLVKPSETLSLTCTVSGYSITSDYAWNWIRQPPGKGLEWMGFVSYSGTTKYNPSLKSRVTISRDTSENQFSLKLSSVTAADTAVYYCARGYGFDYWGQGTTVTVSS VL: EIVLTQSPATLSLSPGERATLSCSATSSISSIYFHWYQQKPGQAPRLLIYRTSNLASGIPARFSGSGSGTSYTLTISSLEPEDFAVYYCQQGTTIPFTFGQGTKLEIK | 0.0462 | 0.191 | 0.0481 | 0.0551 |  |  | 
mAb2 (antibody, V domains shown, Produced in CHO cells as human IgG1 with huCk constant domain) VH: QVQLQESGPGLVKPSETLSLTCTVSGYSITSDYAWNWIRQPPGKGLEWIGFVSYSGTTKYNPSLKSRVTISRDTSKNQFSLKLSSVTAADTAVYYCARGYGFDYWGQGTTVTVSS VL: EIVLTQSPATLSLSPGERATLSCSATSSISSIYFHWYQQKPGQAPRLLIYRTSNLASGIPARFSGSGSGTSYTLTISSLEPEDFAVYYCQQGTTIPFTFGQGTKLEIK | 0.0502 | 0.151 | 0.0381 | 0.0699 | ~3 |  | 
mAb12 (antibody, V domains shown, Produced in CHO cells as human IgG1 with huCk constant domain) VH: QVQLQESGPGLVKPSETLSLTCTVSGYSITSDYAWNWIRQPPGKGLEWMGFVSYSGTTKYNPSLKSRITISRDTSENQFSLKLSSVTAADTAVYYCARGYGFDYWGQGTTVTVSS VL: EIVLTQSPATLSLSPGERATLSCSATSSISSIYFHWYQQKPGQAPRLLIYRTSNLASGIPARFSGSGSGTDYTLTISSLEPEDVAVYYCQQGTTIPFTFGQGTKLEIK | 0.086 | 0.453 | 0.0672 | 0.0642 |  |  | 
mAb11 (antibody, V domains shown, Produced in CHO cells as human IgG1 with huCk constant domain) VH: QVQLQESGPGLVKPSETLSLTCTVSGYSITSDYAWNWIRQPPGKGLEWMGFVSYSGTTKYNPSLKSRITISRDTSENQFSLKLSSVTAADTAVYYCARGYGFDYWGQGTTVTVSS VL: EIVLTQSPATLSLSPGERATLSCSATSSISSIYFHWYQQKPGQAPRLLIYRTSNLASGIPARFSGSGSGTSYTLTISSLEPEDFAVYYCQQGTTIPFTFGQGTKLEIK | 0.0513 | 0.32 | 0.0614 | 0.0789 |  |  | 
mAb5 (antibody, V domains shown, Produced in CHO cells as human IgG1 with huCk constant domain) VH: QVQLQESGPGLVKPSETLSLTCTVSGYSITSDYAWNWIRQPPGKGLEWMGFVSYSGTTKYNPSLKSRVTISRDTSKNQFSLKLSSVTAADTAVYYCARGYGFDYWGQGTTVTVSS VL: EIVLTQSPATLSLSPGERATLSCSATSSISSIYFHWYQQKPGQAPRLLIYRTSNLASGIPARFSGSGSGTSYTLTISSLEPEDFAVYYCQQGTTIPFTFGQGTKLEIK | 0.0493 | 0.318 | 0.0762 | 0.0958 |  |  | 
mAb1 (antibody, V domains shown, Produced in CHO cells as human IgG1 with huCk constant domain; also called anti-MICA mAb1; anti-MICA antibody mAb1) VH: QVQLQESGPGLVKPSETLSLTCTVSGYSITSDYAWNWIRQPPGKGLEWIGFVSYSGTTKYNPSLKSRVTISRDTSKNQFSLKLSSVTAADTAVYYCARGYGFDYWGQGTTVTVSS VL: EIVLTQSPATLSLSPGERATLSCSATSSISSIYFHWYQQKPGQAPRLLIYRTSNLASGIPARFSGSGSGTDYTLTISSLEPEDFAVYYCQQGTTIPFTFGQGTKLEIK | 0.033 | 0.184 | 0.0417 | 0.0612 | 2.4 | ~0.0002 | ~0.003
